Paper doi:10.1101/2021.10.29.466387 (bioRxiv, 2021)
Positions count from the first letter of the chain named. Names and notes keep the numbering of the source. Values joined by “and” are separate entries in the source; they are usually repeats but may differ in a detail not shown here. Equal values may be shown once.

B1: OmpF (natural protein)
chain: AEIYNKDGNKVDLYGKAVGLHYFSKGNGENSYGGNGDMTYARLGFKGETQINSDLTGYGQWEYNFQGNNSEGADAQTGNKTRLAFAGLKYADVGSFDYGRNYGVVYDALGYTDMLPEFGGDTAYSDDFFVGRVGGVATYRNSNFFGLVDGLNFAVQYLGKNERDTARRSNGDGVGGSISYEYEGFGIVGAYGAADRTNLQEAQPLGNGKKAEQWATGLKYDANNIYLAANYGETRNATPITNKFTNTSGFANKTQDVLLVAQYQFDFGLRPSIAYTKSKAKDVEGIGDVDLVNYFEVGATYYFNKNMSTYVDYIINQIDSDNKLGVGSDDTVAVGIVYQF
B2: FLAG-OmpC (natural protein)
chain: AEVYNKDGNKLDLYGKVDGLHYFSDNKDVDGDQTYMRLGFKGETQVTDQLTGYGQWEYQIQGNSAENENNSWTRVAFAGLKFQDVGSFDYGRNYGVVYDVTSWTDVLPEFGGDTYGSDNFMQQRGNGFATYRNTDFFGLVDGLNFAVQYQGKNGNPSGEGFTSGVTNNGRDALRQNGDGVGGSITYDYEGFGIGGAISSSKRTDAQNTAAYIGNGDRAETYTGGLKYDANNIYLAAQYTQTYNATRVGSLGWANKAQNFEAVAQYQFDFGLRPSLAYLQSKGKNLGRGYDDEDILKYVDVGATYYFNKNMSTYVDYKINLLDDNQFTRDAGINTDNIVALGLVYQF
B3: OmpC-His6 (natural protein)
chain: B2 chain
B4: ^35S-labelled OmpC (natural protein)
chain: MKVKVLSLLVPALLVAGAANAAEVYNKDGNKLDLYGKVDGLHYFSDNKDVDGDQTYMRLGFKGETQVTDQLTGYGQWEYQIQGNSAENENNSWTRVAFAGLKFQDVGSFDYGRNYGVVYDVTSWTDVLPEFGGDTYGSDNFMQQRGNGFATYRNTDFFGLVDGLNFAVQYQGKNGNPSGEGFTSGVTNNGRDALRQNGDGVGGSITYDYEGFGIGGAISSSKRTDAQNTAAYIGNGDRAETYTGGLKYDANNIYLAAQYTQTYNATRVGSLGWANKAQNFEAVAQYQFDFGLRPSLAYLQSKGKNLGRGYDDEDILKYVDVGATYYFNKNMSTYVDYKINLLDDNQFTRDAGINTDNIVALGLVYQF
modifications: ^35S-methionine label
B5: ^35S-labelled OmpC(Y286A) (natural protein)
chain: B4 chain with Y286A
modifications: ^35S-methionine label

How the values were obtained:
native gel or EMSA = molecular target: the molecule itself; experiment: native gel or EMSA
[1] = molecular target: the molecule itself; experiment: SDS-PAGE of samples folded in detergent micelles

Row | Protein | stoichiometry N (native gel or EMSA) | stoichiometry N [1]
1 | B1 | 3 and 2 | –
2 | B2 | 2 and 3 | –
3 | B3 | – | 3
4 | B4 | 3 | –
5 | B5 | 3 | –
